Results on 21 sequences are retold here after a protein production outcome set (Wang et al. 2014).
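Note: failed if final PepcDB status was selected cloned or expressed and not failed if soluble or beyond.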

The series can be described thus: label from the status in PepcDB records.
As for “MPKIHELSETLTNQIAAGEVIERPASVVKELVENSLDAGATRIRVDFVDAGLKQIVVQDNGTGIARDQVDLAFTRHATSKISNEHDLFKVATLGFRGEALASISAVSHVEILTATKGAIGVKATFSGGNKKGQEDAAAREGTQITVRDLFFNTPARLKYLRSPRTEIMKIVDIINRLALGYPSVSFTLSNTGKVLLRTPGNGNLKQTVANVYGRHIAEKMEEFEAKDNDFKISGLMSKPELTRSTRNFVSILLNGRYIRNFQLNTAIMDGYGAKLAARHYPIIVLAIQVDPLLVDVNVHPTKQEVRLSKEKELSRLITSTISNVFIKKTEQTSAFANLENKRETLVDQLQFNLNQNVVNTARKKTPEIHENNEKPEFLAKPKKPEEEKTDYVDLNIPREDDKYIITKTWDKNVLLQQDLRPFSNTLCDSEVISSGDETLANNLPQLSYIGQIDTYIIAENNSDLFLIDQVAARRRLQFEKIYEMLLSKKIVQQGLLTPIVLEFGNLDFIQIKDKIDQIKQIGIYLEDFGQNSFIVRSYPTWIHNDVEETIRQILDGYLNLDKGKSENLFKRVAAMQAKRDISGKINLAAAEASQILIDLRKTEDPYHDADGRLVLVRMSENELKKMFKRDK”, the protein production result was “failed”.

Take “MGTEATEQVSWGHYSGDEEDAYSAEPLPELCYKADVQAFSRAFQPSVSLTVAALGLAGNGLVLATHLAARRAARSPTSAHLLQLALADLLLALTLPFAAAGALQGWSLGSATCRTISGLYSASFHAGFLFLACISADRYVAIARALPAGPRPSTPGRAHLVSVIVWLLSLLLALPALLFSQDGQREGQRRCRLIFPEGLTQTVKGASAVAQVALGFALPLGVMVACYALLGRTLLAARGPERRRALRVVVALVAAFVVLQLPYSLALLLDTADLLAARERSCPASKRKDVALLVTSGLALARCGLNPVLYAFLGLRFRQDLRRLLRGGSCPSGPQPRRGCPRRPRLSSCSAPTETHSLSWDN”: the protein production result was “failed”.

Turning to “MTDTQNRVAMGYIKGVFGIKGWLKIAANTEYSDSLLDYPEWHLVKDGKTISVTLEAGKVVNGELQVKFEGINDRDLAFSLRGYTIEIPREAFAPTEEDEYYWTDLVGMTVVNKDHTVLGKVSNLMETGANDVLMIDGEHGQILIPFVSQYIETVDTGSKTITADWGLDYLEHHHHHH”, the protein production result is recorded as “not failed”.

Consider “MLIVNREEYSKSDFDLRLQAYEEMEQFQEAAGNRFALCLKDPFDIITLVFFLKEKKSSVLLIHEDTPKETAIEMAKRANCIGILYGENSDFTKLEAVNYLAEEPSLLQYSSGTTGEPKLIRRAWTEVDTEIKVYNEALNCDIDEVPIVMAPVSHSYGLICGTLSAITRGSKPIIITNKNPKFALNIVRNTEKHIVYAVPLMLHIMGSFPQGTFQFHKIMTSGAPLPEALFYKLKETTTYMMQQYGCSEAGCISICHDMKSHLDLGNPLPHASISIGSDENAPEEIIVKMNDKEIFTKDLGYKSERGLHFMGRMDDVINVSGLKVFPIEVEETMLRLEGVQEAIVYRGKHPVMGEIVKAKVISHIDPVQIREWCMQHLPSYKVPHEIESVTEIPKNKTGKVSRKLLEMGEVTT”, for which the protein production result was “failed”.

Take “SYRSTQQITDFTKEILVNGEAVTAFDRQGDLPNVVVTPNFEAGVDQVVDQLAMNDSERDTTAIIGKSLAECEALTKALKARGEQVTLIQTENQRLAPGVIVVPSFLAKGLEFDAVIVWNANQENYQREDERQLLYTICSRAMHELTLVAVGSLSPLLARVNHALYTLNEAK”: the protein production entry was “not failed”.

Take “MTISYPAKEFLQTIFKTPYLKNLYLSPTMSIYDTLIGSPATTLKRYLLKSDVAVMYTSPSTYVENEDSSFRFNQNCSPMPPWVLGTKSKTIINTLPPKKSHKRTNTDIIGIHSMTSQNSSGSSYFQLLDLLADLGELIYDDEAMKGFYYEFMNLDNKNAFNNDENLNNLMITFTNLGGASNANESGLKIGATTSGVKTKVDEDIEPLCRHYKCATMDSSFIHWITHWNLLDQVFSSNFVGEGEYYTDPNEVKRILENRDLDTRSKQGKSLYIVDLEGSVRIHVMVNTSLYGMIVLLEVRHITLAKKKNDVDDEREQENEDSS”: the protein production entry was “failed”.

Take “MDPKHKKLLRTQRLFLSEELLVDDLIIQYLYQEEILTESHLEEIQSESSSRNKTLKLLDILPSRGATAFHHFIKSLEKDFPWIRDKLLQLNEEEESPPPPFTVQCGVPDHILLTVPTTLHLNQLASRLGSEWKSVLLDLGLSCADLYRCCSDHPLAVQSQVLAGLVMWTQRNGRGATVQRLIQSLQAADVPPSVLQQVFK”: the protein production result is reported as “failed”.

With “MTQHRLNTSQWFGLLGWLVLCYAVAALGAMASIQAASFYAQLQRPAWAPPGWLFGSVWTVLYGMMAVSVWSVWRRGGWAGARVALTLFLVQLALNGLWSWLFFAWHLGAWAFTDIVALWLVLAATIGVFAKRQALAAWLLVPYLAWVSFAAALNFSVWQLNLQMLG”, the protein production entry is recorded as “failed”.

Take “MSDGIPFAGEPADSHEAIMRATFRALREYGYAGLSIQRIADEADLSKSTFYHHFDGKEDLLLSFQEFILTEFNRIFQIESTGDPEQDIKTFVSLILDDFPDCVETPTKNAVLGSYVEMRAQAVQNPDFREKFTETDELFARQLVQIIEDGIEQGVFADVDPDTVSRFMITILDGVILQSATRNDNPVAEVRDTIDEYIEETLILNT”: the protein production entry was “failed”.

“MGFLNKLLSSEGPRKPKVKFDLQKCKVLLKGGENRIRLQKSKLAVCNLLASPVPALKNLFNKNSVKLQQREVAVLLEGGKDELARIRAEQMVRDELLIESYEIVEVLCETLLTRHNLLALNFHATKENPYPPLPPEIAEAVCSIAFASCRLDASELQTLTEMLASRFGPELIDSACAGQPSQRVWGVNSLVNPRLYSKLLYSVPDGNVVLQKLQDIADMFQLEWKAPAEFEELKDHSVLDSTASTPVFSGNAQRARYLPEASSFSDEKIGDDVFCTNESEQTEEGRDPSDDLSARLEALKRNR”: the protein production entry was “failed”.

On to “MTKRFKLKISRILSFKSCRLKDPSSLPFNPVSSSLRRTSPLVNSSADVTTVPQRRRSSFRLHVLTVFGCGRSSTPLDVDLRNSPVLSPPQTPTFQWESEGKWHVIAQVTEEEYETPRRKIYNGGSEKDNRRRLKKKEKSNSRRRGSISSAEEETDRESLLPSSTNLSPEYSSSELPRVTRRPRQLLKKAVIEEESESSSPPPSPARLSSFVQRLMPCTMAAAVMVEGVAVVKKSEDPYEDFKGSMMEMIVEKKMFEVAELEQLLSCFLSLNAKRHHRAIVRAFSEIWVALFSGGSGGGRRSSSFSSVRLSDYDEC”, for which the protein production result is “failed”.

On to “MREVKLVTFDVWNTLLDLNIMLDEFSHQLAKISGLHIKDVANAVIEVRNEIKKMRAQASEDPRKVLTGSQEALAGKLKVDVELVKRATARAILNVDESLVLEGTKEALQFVKERGLKTAVIGNVMFWPGSYTRLLLERFGLMEFIDKTFFADEVLSYKPRKEMFEKVLNSFEVKPEESLHIGDTYAEDYQGARKVGMWAVWINQEGDKVRKLEERGFEIPSIANLKDVIELISKT”, for which the protein production result is “not failed”.

On to “MIDMFPMEKGEEQETYELIVRVFHKYVAPVYSENGVARFLGMLSPEGLSEMNNGKNSFVIVARDQSKIIGMISVINDSHIALFFVSPRYQGKGIGKNILDEAIKNCLNRNPELSAVTVSSSPNSKSFYEEAGFEVIGLEHHHHHH”, for which the protein production result is “not failed”.

For “MSFRKVEKKPTEMGRNMTHEKSDSDSDNEGAPMTVGGYTEFVARSDSDWDEPVYSGKARSNYNLTGTAKGTGPINSFSRKHFPNY”, the protein production result was “failed”.

With “MKVDDTEEASQKPEDILAQGKDEARLSLEERRKLFQSKGLSAEESLVSVSTEDTLFQKEEDSKVYPLSMTWSFGWNSSLPVYYMREDRRVILYTCAHTAIMYDVVRNTQYHLQGHPNIISCLCVSEDRRWIATADEGPDCLIIIWDSFTGIPVHTIFDSCPEGNGMRSIAITRDSKFLATISDSATQKVCIWKWTLAVETPACTLELPKEYGFQDNLVFNPANNKELVSNSKTQAIYYCWFEDKGILAHSAPVLTEKTFNKLVGKFSQSVFHLKLPQVLSATKEGKLVVWDIHYPSSTSSSAISAFPFIKPRKLVHLQKEAITVLMTIDSYIVTGDIKGNIKFYDHTLSVVNWYSNFKLGAIRTLSFSKTIPSLPTEKSNLPTDCTLRGDLFVVRNFIIGTFDATVYHMTVDGTKLEKLFVEPRDAVYAVSCHPYQPLIAVGSVCGMIKVWDFEKKVYLFSRTFEKGLGVQCLTYNPEGALLGAGFTEGTVYILDAMSLENESPEPFKYSKSSVSHCCFSHDSNYMATADVNFTVAVYMVVVKNGQRVWEYLARLRSHQNSIQSLLFGVHLDSNEPRLLSLGKDRFLIEYNLVKSCKDHLDVLDVHRTDQGNYPTCMIWYPPLTKELFLLICNSGYKVKLFNATTKMCRKTLLGPAYGSPIEHAQVLPVKSTLELQKRYLVFINKDKVGLQILPVDGNPHKTCAIVCHPNGVAGMALSYDGRFAFTAGGQDRSVVQWKINLGALEAAVSLGGEDLTPFYGLVSGGREGKFYRELEDYFYYSQIRSQGIDTMETRQVSEHICLSELPFVMRAIGFYPSEEKIEDMFNEIKFSEYVETGKLIDKINLPDFLKVYLNHRPPFGNTMDGIQNSFNVLGYTNSEGKKAIRREDFLNLLLTKGEHMTEEEMIDCFSTLFGLTPEGWKSEPAATCINGPEICLQKELPEEITAEIFTTEILGLTLSDSSEQLIQ”, the protein production entry is “failed”.

Consider “MQTPPRLVAIGGLSGSGKTTIAEALAAHVGAPPGARIVESDRIRKAMHGVPAETRLPDNAYRPDVSDRVYNEMTWRAGLILSEGGSVVADAVFDRPADRERIEKAARDRGIPFFGFWLEADPLVLWQRVSERKGGPSDATVDILSRQLQRKAGLEHHHHHH”, for which the protein production result is on record as “failed”.

As to “SLSQTTNIKEQTDTGLAPPAPAITTNSAAIEEQANSSIRKLYHTLNTMPNTSMADRISQISAYFKGTKYILGSLGEGPNARYDQFPRYRVDGFDCDTYVNTVLSLALANSLESFQECLKHTRYKNGKRSYINRNHFTSIDWNNYNQKRGLLKDITFSIRNEKKQPVALYANALINKPQWYNHKTIDTIRLQKQDKNEQEKRLVELKAKGKTLETSLSNVPYIPFTALFSENKPNLHLFSQIPNGAVIEIIRPNWDLRQQIGTELDISHLGFAIWINNELFFRQASSQYGKVVDVSLIDYLDKARSSPTIKGINIQVVLPEKPVSNGCQLFDIR”, the protein production result is “not failed”.

Take “MGLASMESWIDLLEWPAMLVTVVAAWCIGSHRPGRRMVGFCCFIASNILWSVWGWHAQAWALIVLQLVLCLMNLRGWRKNKRASRKAPSEKVQGGADATPYHLLTSTSRGQPENPS”: the protein production result was “failed”.

In the case of “MKFESYDLAPGIKKSLAEAGFNRPTDIQFKSIPPILAGEDVLAIAQTGTGKTAAFVIPVLNTLINVKKSEHTDISCLVMAPTRELAVQISEVFKKIGAYTRLRTVCITGGVEQEAQIAAADYGIDILVATPGRMFDLIYQKHIKITRVKILVLDEADHMLDLGFIKDIQDVKKFLPARHQTLFFSATINEEIKKLAYSLVKNPIRIQIAPKDRVSKNITHSVAFIGMDDKRFFLERLLKEHPESKVIVFVRTQVRADRVQAAMERVGLKSVTMHGGKEQQARDAAMDAFKNGTVHVLIATDISARGIDIAGVEYVVNYDMPEVAENYVHRVGRTGRGVSKGFAISFCSMEEKPVLDEVEEFLGKEINVIEITGKDYDATLDLTEDVNDNWKALLKEADAETTKKYVPKKKKKK”, the protein production entry is reported as “failed”.

For the sequence “DPAVLLDRAGRVIHLNAAAAQLAPALRVRELAQFALRSPEIVTALREAIATSEPRRVTYLDHGSIERWLELIIAPVQVPTAFGGTDQCMLMTFHDLTPLRRVEEMRADFVANASHELRTPLAALSGFIDTLQGQAR”, the protein production result is listed as “failed”.

With “MIEWQLAELIPHAGDMILIDQVLDFDEEQINTRLTVRADGLFNQPDGSLPAWLGIELMAQSVAAYAGCQARSKGEAVKLGFLLGSRKFDCNVARFPAGSELHIHAIRSLQDDSGMGVFECTLTGPDITALARLNVYCPPNTADYLAEGAPALEHHHHHH”, the protein production entry is “not failed”.
